Non-standard residues stand in square brackets, D forms with d. Dab = NCC[C@H](N)C(=O)O; Aib = CC(C)(N)C(=O)O
B1: Compound 12 (peptide)
peptide: H-HSQGTFTSDYSKYLD[Aib]ARAEDFVKWLEST-OH
SMILES: CC(C)C[C@H](NC(=O)[C@H](Cc1c[nH]c2ccccc12)NC(=O)[C@H](CCCCN)NC(=O)[C@@H](NC(=O)[C@H](Cc1ccccc1)NC(=O)[C@H](CC(=O)O)NC(=O)[C@H](CCC(=O)O)NC(=O)[C@H](C)NC(=O)[C@H](CCCNC(=N)N)NC(=O)[C@H](C)NC(=O)C(C)(C)NC(=O)[C@H](CC(=O)O)NC(=O)[C@H](CC(C)C)NC(=O)[C@H](Cc1ccc(O)cc1)NC(=O)[C@H](CCCCN)NC(=O)[C@H](CO)NC(=O)[C@H](Cc1ccc(O)cc1)NC(=O)[C@H](CC(=O)O)NC(=O)[C@H](CO)NC(=O)[C@@H](NC(=O)[C@H](Cc1ccccc1)NC(=O)[C@@H](NC(=O)CNC(=O)[C@H](CCC(N)=O)NC(=O)[C@H](CO)NC(=O)[C@@H](N)Cc1c[nH]cn1)[C@@H](C)O)[C@@H](C)O)C(C)C)C(=O)N[C@@H](CCC(=O)O)C(=O)N[C@@H](CO)C(=O)N[C@H](C(=O)O)[C@@H](C)O
B2: Compound 15 (peptide)
peptide: H-HSQGTFTSDYSKYLD[Aib]ARAESFVKWLEST-OH
SMILES: CC(C)C[C@H](NC(=O)[C@H](Cc1c[nH]c2ccccc12)NC(=O)[C@H](CCCCN)NC(=O)[C@@H](NC(=O)[C@H](Cc1ccccc1)NC(=O)[C@H](CO)NC(=O)[C@H](CCC(=O)O)NC(=O)[C@H](C)NC(=O)[C@H](CCCNC(=N)N)NC(=O)[C@H](C)NC(=O)C(C)(C)NC(=O)[C@H](CC(=O)O)NC(=O)[C@H](CC(C)C)NC(=O)[C@H](Cc1ccc(O)cc1)NC(=O)[C@H](CCCCN)NC(=O)[C@H](CO)NC(=O)[C@H](Cc1ccc(O)cc1)NC(=O)[C@H](CC(=O)O)NC(=O)[C@H](CO)NC(=O)[C@@H](NC(=O)[C@H](Cc1ccccc1)NC(=O)[C@@H](NC(=O)CNC(=O)[C@H](CCC(N)=O)NC(=O)[C@H](CO)NC(=O)[C@@H](N)Cc1c[nH]cn1)[C@@H](C)O)[C@@H](C)O)C(C)C)C(=O)N[C@@H](CCC(=O)O)C(=O)N[C@@H](CO)C(=O)N[C@H](C(=O)O)[C@@H](C)O
B3: Compound 20 (peptide)
peptide: H-HAQGTFTSDYSKYLD[Aib]ARAESFVKWLEST-OH
SMILES: CC(C)C[C@H](NC(=O)[C@H](Cc1c[nH]c2ccccc12)NC(=O)[C@H](CCCCN)NC(=O)[C@@H](NC(=O)[C@H](Cc1ccccc1)NC(=O)[C@H](CO)NC(=O)[C@H](CCC(=O)O)NC(=O)[C@H](C)NC(=O)[C@H](CCCNC(=N)N)NC(=O)[C@H](C)NC(=O)C(C)(C)NC(=O)[C@H](CC(=O)O)NC(=O)[C@H](CC(C)C)NC(=O)[C@H](Cc1ccc(O)cc1)NC(=O)[C@H](CCCCN)NC(=O)[C@H](CO)NC(=O)[C@H](Cc1ccc(O)cc1)NC(=O)[C@H](CC(=O)O)NC(=O)[C@H](CO)NC(=O)[C@@H](NC(=O)[C@H](Cc1ccccc1)NC(=O)[C@@H](NC(=O)CNC(=O)[C@H](CCC(N)=O)NC(=O)[C@H](C)NC(=O)[C@@H](N)Cc1c[nH]cn1)[C@@H](C)O)[C@@H](C)O)C(C)C)C(=O)N[C@@H](CCC(=O)O)C(=O)N[C@@H](CO)C(=O)N[C@H](C(=O)O)[C@@H](C)O
B4: Compound 22 (peptide)
peptide: H-HSQ[dA]TFTSDYSKYLD[Aib]ARAESFVKWLEST-OH
SMILES: CC(C)C[C@H](NC(=O)[C@H](Cc1c[nH]c2ccccc12)NC(=O)[C@H](CCCCN)NC(=O)[C@@H](NC(=O)[C@H](Cc1ccccc1)NC(=O)[C@H](CO)NC(=O)[C@H](CCC(=O)O)NC(=O)[C@H](C)NC(=O)[C@H](CCCNC(=N)N)NC(=O)[C@H](C)NC(=O)C(C)(C)NC(=O)[C@H](CC(=O)O)NC(=O)[C@H](CC(C)C)NC(=O)[C@H](Cc1ccc(O)cc1)NC(=O)[C@H](CCCCN)NC(=O)[C@H](CO)NC(=O)[C@H](Cc1ccc(O)cc1)NC(=O)[C@H](CC(=O)O)NC(=O)[C@H](CO)NC(=O)[C@@H](NC(=O)[C@H](Cc1ccccc1)NC(=O)[C@@H](NC(=O)[C@@H](C)NC(=O)[C@H](CCC(N)=O)NC(=O)[C@H](CO)NC(=O)[C@@H](N)Cc1c[nH]cn1)[C@@H](C)O)[C@@H](C)O)C(C)C)C(=O)N[C@@H](CCC(=O)O)C(=O)N[C@@H](CO)C(=O)N[C@H](C(=O)O)[C@@H](C)O
B5: Compound 23 (peptide)
peptide: H-HSQGTFTSDVSKYLD[Aib]ARAESFVKWLEST-OH
SMILES: CC(C)C[C@H](NC(=O)[C@H](Cc1c[nH]c2ccccc12)NC(=O)[C@H](CCCCN)NC(=O)[C@@H](NC(=O)[C@H](Cc1ccccc1)NC(=O)[C@H](CO)NC(=O)[C@H](CCC(=O)O)NC(=O)[C@H](C)NC(=O)[C@H](CCCNC(=N)N)NC(=O)[C@H](C)NC(=O)C(C)(C)NC(=O)[C@H](CC(=O)O)NC(=O)[C@H](CC(C)C)NC(=O)[C@H](Cc1ccc(O)cc1)NC(=O)[C@H](CCCCN)NC(=O)[C@H](CO)NC(=O)[C@@H](NC(=O)[C@H](CC(=O)O)NC(=O)[C@H](CO)NC(=O)[C@@H](NC(=O)[C@H](Cc1ccccc1)NC(=O)[C@@H](NC(=O)CNC(=O)[C@H](CCC(N)=O)NC(=O)[C@H](CO)NC(=O)[C@@H](N)Cc1c[nH]cn1)[C@@H](C)O)[C@@H](C)O)C(C)C)C(C)C)C(=O)N[C@@H](CCC(=O)O)C(=O)N[C@@H](CO)C(=O)N[C@H](C(=O)O)[C@@H](C)O
B6: Compound 24 (peptide)
peptide: H-HS[Dab](Ac)GTFTSDYSKYLD[Aib]ARAESFVKWLEST-NH2
SMILES: CC(=O)NCC[C@H](NC(=O)[C@H](CO)NC(=O)[C@@H](N)Cc1c[nH]cn1)C(=O)NCC(=O)N[C@H](C(=O)N[C@@H](Cc1ccccc1)C(=O)N[C@H](C(=O)N[C@@H](CO)C(=O)N[C@@H](CC(=O)O)C(=O)N[C@@H](Cc1ccc(O)cc1)C(=O)N[C@@H](CO)C(=O)N[C@@H](CCCCN)C(=O)N[C@@H](Cc1ccc(O)cc1)C(=O)N[C@@H](CC(C)C)C(=O)N[C@@H](CC(=O)O)C(=O)NC(C)(C)C(=O)N[C@@H](C)C(=O)N[C@@H](CCCNC(=N)N)C(=O)N[C@@H](C)C(=O)N[C@@H](CCC(=O)O)C(=O)N[C@@H](CO)C(=O)N[C@@H](Cc1ccccc1)C(=O)N[C@H](C(=O)N[C@@H](CCCCN)C(=O)N[C@@H](Cc1c[nH]c2ccccc12)C(=O)N[C@@H](CC(C)C)C(=O)N[C@@H](CCC(=O)O)C(=O)N[C@@H](CO)C(=O)N[C@H](C(N)=O)[C@@H](C)O)C(C)C)[C@@H](C)O)[C@@H](C)O
B7: Compound 25 (peptide)
peptide: H-HSQGTFTSDYSKYLD[Aib]RRAESFVKWLEST-OH
SMILES: CC(C)C[C@H](NC(=O)[C@H](Cc1c[nH]c2ccccc12)NC(=O)[C@H](CCCCN)NC(=O)[C@@H](NC(=O)[C@H](Cc1ccccc1)NC(=O)[C@H](CO)NC(=O)[C@H](CCC(=O)O)NC(=O)[C@H](C)NC(=O)[C@H](CCCNC(=N)N)NC(=O)[C@H](CCCNC(=N)N)NC(=O)C(C)(C)NC(=O)[C@H](CC(=O)O)NC(=O)[C@H](CC(C)C)NC(=O)[C@H](Cc1ccc(O)cc1)NC(=O)[C@H](CCCCN)NC(=O)[C@H](CO)NC(=O)[C@H](Cc1ccc(O)cc1)NC(=O)[C@H](CC(=O)O)NC(=O)[C@H](CO)NC(=O)[C@@H](NC(=O)[C@H](Cc1ccccc1)NC(=O)[C@@H](NC(=O)CNC(=O)[C@H](CCC(N)=O)NC(=O)[C@H](CO)NC(=O)[C@@H](N)Cc1c[nH]cn1)[C@@H](C)O)[C@@H](C)O)C(C)C)C(=O)N[C@@H](CCC(=O)O)C(=O)N[C@@H](CO)C(=O)N[C@H](C(=O)O)[C@@H](C)O

Target: human glucagon receptor (human, UniProt P47871 26-477)
Sequence (P47871 26-477): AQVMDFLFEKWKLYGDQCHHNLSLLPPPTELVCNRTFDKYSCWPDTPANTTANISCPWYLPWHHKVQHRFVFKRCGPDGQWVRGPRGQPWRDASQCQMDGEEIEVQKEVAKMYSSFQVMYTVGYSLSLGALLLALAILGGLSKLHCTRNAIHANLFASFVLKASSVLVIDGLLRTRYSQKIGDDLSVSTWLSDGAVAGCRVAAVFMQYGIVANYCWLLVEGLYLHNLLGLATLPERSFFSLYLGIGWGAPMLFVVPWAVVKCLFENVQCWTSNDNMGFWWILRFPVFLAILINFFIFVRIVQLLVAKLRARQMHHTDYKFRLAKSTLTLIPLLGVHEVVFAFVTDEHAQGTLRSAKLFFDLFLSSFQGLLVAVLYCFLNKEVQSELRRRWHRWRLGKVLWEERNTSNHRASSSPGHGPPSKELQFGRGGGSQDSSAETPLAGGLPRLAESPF
Assay: cell-based or functional assay

In order of falling “GCG-R EC50 in vitro [nM] (cAMP, AlphaScreen, HEK293 cells expressing human Glucagon-R)” value:
1. H-HSQGTFTSDYSKYLESARAESFVKWLEST-OH [Compound 16]  0.39 nM
2. H-HSQGTFTSDYSKYLDSARAEDFVSWLEST-OH [Compound 10]  0.32 nM
3. B3  0.24 nM
4. H-HSQGTFTSDYSKYLDSARAEDFVKWLEET-OH [Compound 2]  0.18 nM
5. B5  0.16 nM
6. H-HSQGTFTSDYSKYLDEARAEDFVKWLEST-OH [Compound 14]  0.15 nM
7. H-HSQGTFTSDLSKYLDSARAEDFVKWLEST-OH [Compound 11]  0.11 nM
8. H-HSQGTFTSDYSKYLDSARAEDFVKWLES-OH [Compound 13]  0.07 nM
9. H-HSQGTFTSDYSKYLDSARAESFVKWLEST-OH [Compound 1]  0.064 nM
10. H-HSQGTFTSDYSKYLDEARAKSFVEWLEKT-OH [Compound 27]  0.063 nM
11. H-HSQGTFTSDYSKYLDVARAESFVKWLEST-OH [Compound 19]  0.054 nM
12. H-HSQGTFTSDYSKYLDEARAKSFVEWLEST-OH [Compound 28]  0.035 nM
13. H-HSQGTFTSDYSKYLDSARAEEFVKWLEST-OH [Compound 9]  0.03 nM
14. B1  0.03 nM
15. B2  0.03 nM
16. H-HSQGTFTSDYSKYLDLARAEDFVKWLEST-OH [Compound 17]  0.029 nM
17. H-HSQGTFTSDYSKYLDKRRAEDFVSWLEST-OH [Compound 18]  0.026 nM
18. B4  0.024 nM
19. B6  0.0078 nM
20. B7  0.0066 nM

— patent publication US20240067696A1 (ZEALAND PHARMA A S, published 2024)
